Consider twelve sequences from a protein production outcome set (Wang et al. 2014).

The nature of the series: label from the status in PepcDB records.

Consider “MSDKYYRSAYMNVDLNAVASNFKVFSTLHPNKTVMAVVKANAYGLGSVKVARHLMENGATFFAVATLDEAIELRMHGITAKILVLGVLPAKDIDKAIQHRVALTVPSKQWLKEAIKNISGEQEKKLWLHIKLDTGMGRLGIKDTKTYQEVIEIIQQYEQLVFEGVFTHFACADEPGDMTTEQYQRFKDMVNEAIKPEYIHCQNSAGSLLMDCQFCNAIRPGISLYGYYPSEYVQQKVKVHLKPSVQLIANVVQTKTLQAGESVSYGATYTATDPTTIALLPIGYADGYLRIMQGSFVNVNGHQCEVIGRVCMDQTIVKVPDQVKAGDSVILIDNHRESPQSVEVVAEKQHTINYEVLCNLSRRLPRIYHDGDQRFVTNELLK”, for which the protein production entry is listed as “not failed”. On to “MSDLKSLATKFASDHESGKLLVLPTVWDTWSAGLVEEAGFSGLTIGSHPVADATGSSDGENMNFADYMAVVKKITSAVSIPVSVDVESGYGLSPADLIAQILEAGAVGINVEDVVHSEGKRVREAQEHADYIAAARQAADVAGVDVVINGRTDAVKLGADVFEDPMVEAIKRIKLMEQAGARSVYPVGLSTAEQVERLVDAVSVPVNITAHPVDGHGAGDLATLAGLGVRRVTFGPLWQKWLAATSAQQLKGWA”, for which the protein production entry is “not failed”. For “MSDLTKVFIAPEEIVNFLKKNMQLKEVYQKILFQRLILQVAEARGITVTTEEIEAEANRQRREKRLEKAADTMAWLADQLASPEDWEMGIRDRLLSQKLANFLFADKVEAFFIQNQLEFEQVSLYQIIVDSEKLAQEIYYQIEDEEISFYEAAYLYDVDAVRRQRCGYEGKVYRFSLPVNVATVIFRTSPKQLISPLQTEQGYHLFMVEEFIPAELTGERYQEILNNMFNQWLITELNKILN”, the protein production result was “failed”.

Turning to “MSDNNDRMYELEYPSPEVSGQTAGGPTLIVALQGYADAGHAVESSSSHLMDALDHRLIASFNNDELIDYRSRRPVVVIEHNEVTSMDELNLGLHVVRDNDNKPFLMLSGPEPDLRWGDFSNAVVDLVEKFGVENTICLYAAPMTVPHTRPTVVTAHGNSTDRLKDQVSLDTRMTVPGSASLMLEKLLKDKGKNVSGYTVHVPHYVSASPYPAATLKLLQSIADSADLNLPLLALERDAEKVHRQLMEQTEESSEIQRVVGALEQQYDSELERYRNRHPQAVMPGESELPSGDEIGAEFEKFLADLDDQGGSDHKETPEA”, the protein production result was “not failed”.

Take “MSDPITLNVGGKLYTTSLATLTSFPDSMLGAMFSGKMPTKRDSQGNCFIDRDGKVFRYILNFLRTSHLDLPEDFQEMGLLRREADFYQVQPLIEALQEKEVELSKAEKNAMLNITLNQRVQTVHFTVREAPQIYSLSSSSMEVFNANIFSTSCLFLKLLGSKLFYCSNGNLSSITSHLQDPNHLTLDWVANVEGLPEEEYTKQNLKRLWVVPANKQINSFQVFVEEVLKIALSDGFCIDSSHPHALDFMNNKIIRLIRYR”: the protein production result was “failed”. The result for “MSDPVSYTRKDSIAVISMDDGKVNALGPAMQQALNAAIDNADRDDVGALVITGNGRVFSGGFDLKILTSGEVQPAIDMLRGGFELAYRLLSYPKPVVMACTGHAIAMGAFLLSCGDHRVAAHAYNIQANEVAIGMTIPYAALEIMKLRLTRSAYQQATGLAKTFFGETALAAGFIDEIALPEVVVSRAEEAAREFAGLNQHAHAATKLRSRADALTAIRAGIDGIAAEFGL” reads “not failed”; that for “MSDRLANQIAAGEVVQRPASVAKELIENALDAGASSIEVLLKDAGSTLVQVIDDGCGMGPGDAERCFERHATSKLRSVDDLERIRTLGFRGEALASIAAVAQVTLKTKRVEDDAGTLVRVEGGEQVEKRPCAIPNGTSVAVRNLFFNVPARRNFLKTPATELKHLTQTVQSLALANPDTAVRLEHDGHEHYDLPAAPDSDWHAATRARILGLFGGDHEDELVAVEDESSDLRLRGFVGAPSFHRKTRGEQFLFVNGRAVTDRYLSHAVKKAYGELVPDGAFPFFALFLAMNPERVDVNVHPQKEEVKFDDQSGIYGFLRSAVRRALGRVHVSPQMDDGDDEADNEEDSPGPESDGTGSGGHAVSGDGTSSPRPTPTSFQPQRSSGDATDSSGRSSSGPSPQSPKPRPENPSVSPGDQSDALYRRPDGGDESSPGDAPASPPHREGGSSSTSAADEAERSGRRPVWGLHDTYVVTPTETGMMLVDQRAAHLRVLYERARAHLRDQQGASQRLLFPHTVDLSPAEVELLDELRDDLDALGFELERLSGRTVSVRGVPADVPDGNEDTILEELLEQYRSAQDAVEDERREHLAKTMAQRSAVDRGQPLSEEERRALLDDLFDCEMPYADPTGTPTIVKLSMEELADRFGR”, “failed”; that for “MSDRRAPLVLEVDGVRHPLTPPGLTIGRGSDADIRINDPGISRLHARINVWPQGNDIGLSIEDLDSTNGVTVNGVKVTSTELGDGSRIEIGSTRMLVHSPTRILEHHHHHH”, “failed”. Consider “MSDSGRADALLAELPRDGRGRLKVFLGAAPGVGKTYAMLQAAHSQLRQGVKVLAGVVETHGRAETEALLSGLPQQPLVRSEYRGVLLEEMDLDGLLKAKPKLVLVDELAHSNAPGSRHAKRWQDIQELLAAGIDVFTTVNVQHLESLNDQVRGITGVQVRETLPDWVLQEAYELLLVDLPPRELLERLRDGKVYVPEQARAAIDAFFTQTNLTALRELAMQTAAAQVDNDLAQGYRQLGQAAPAVRGRLLVGIDGDAQAERLVRHASRVAQRRHLPWSLVHVDNGRLRDEQARLRLQAAQQLAERLGGEVVLLRAGEVAKTLIQHAAERRASLLLVGQSRRRWRRRWFGGGLAARLLRNADGLEINVLDSEPQPHQPGLRVKHSLIWFDYVLAVLATLLASALAWGVASVLPLPNISLVFLAAVLLVAVRSSLGPALACAALSFLSYDFLFIPPNFSLAIQREEDVLTLLFFLLMAALTGNLAARQRRQLQALRDTQEETGELLDLSRKLTAATDRQAVISAAAQHLNGRDELRVCLINRDGQGGWKVETGGSPQFSEAERAAADWAWQHDQPAGLGTGTLPFGRWWWWPLSVDDGPLGLLGVCPREGEEFSGQRRRLLTALSQPLAQALARARLAEDLEAARLHGETEQLRSALLASVSHDLRTPLTSMRGSIDSLLALGEAIPLEDRRELLEGTRDEAERLDRYIQNLLDMTRLGHGALKLARDWVAPGDIVGSALNRLRAVLAPLQVATELPADLPLLYVHAALIEQALVNVLENAARFSPLQGHLQLKVSASEQELSFAVSDEGPGIPEDERAKIFDMFYTAARGDRGGQGTGLGLAICQGMVGAHGGHISVAEGIGGKGTCITLHLPLQTQPELESDL”, for which the protein production entry was “failed”. The result for “MSDSLRIIFAGTPDFAARHLGALLSSQHKIVGVFTQPDRPAGRGNKLTPSPVKILAEHHGIPVFQPKSLRPEENQHLVADLNADIMVVVAYGLILPAAVLAMPRLGCINVHGSLLPRWRGAAPIQRSVWAGDEKTGITIMQMDIGLDTGAMLHKIECAIQPEDTSATLYDKLAQLGPQGLLITLQQLAAGTALAEVQNETQATYAEKLSKEEAKLDWTLSATQLERCIRAFNPWPVSYFIVDEQPIKVWQAQVLPAGEDAEPGTIIHADKHGIQVATADGVLNITQLQPAGKKAMSAADLLNSRREWFIPGSQLV” reads “not failed”; that for “MSDSPRPSSRPDFWDVRYERDRHLFGAEPNAFVKAEAHRLPPESEVVEVGAGEGRTAAWLAREHGHRVTAVDFSETALKTAQERAEAEHLRLDTVRADVRTWRPDRQWDAAVVTFLQLLPDERPRLYRLLKNSVRSGGWLLAEWLRPAHLTGPYDRMGPSRADRMVPVDEVRRAFADEHLASVEAVDVHLQEGPHLTGDAAVVRGIVQAGAS”, “failed”; that for “MSDSSPTINFINFNQTGTCISLGTSKGFKIFNCEPFGKFYSEDSGGYAIVEMLFSTSLLALVGIGDQPALSPRRLRIINTKKHSIICEVTFPTSILSVKMNKSRLVVLLQEQIYIYDINTMRLLHTIETNPNPRGLMAMSPSVANSYLVYPSPPKVINSEIKAHATTNNITLSVGGNTETSFKRDQQDAGHSDISDLDQYSSFTKRDDADPTSSNGGNSSIIKNGDVIVFNLETLQPTMVIEAHKGEIAAMAISFDGTLMATASDKGTIIRVFDIETGDKIYQFRRGTYATRIYSISFSEDSQYLAVTGSSKTVHIFKLGHSMSNNKLDSDDSNMEEAAADDSSLDTTSIDALSDEENPTRLAREPYVDASRKTMGRMIRYSSQKLSRRAARTLGQIFPIKVTSLLESSRHFASLKLPVETNSHVMTISSIGSPIDIDTSEYPELFETGNSASTESYHEPVMKMVPIRVVSSDGYLYNFVMDPERGGDCLILSQYSILMD”, “failed”.
